Measured values reported in the supplement of paper PMC6379048.

Tests used:
Assay in all cases: EC50 of free RNA motif oligo competing protein binding to immobilised probe
DHX9 = DHX9 (UniProt Q08211)
Experimental: (§1)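 Competition-binding assay: HEK293-FT cell lysate (2.5 mg protein) pre-incubated 1 h at 4°C with free motif-containing RNA oligos (0 to 30 µM, 12 doses), then pulled down with the same 5'-amino-C6 RNA oligos immobilised on NHS-Sepharose beads (30 min, 4°C). Bound proteins were quantified by label-free LC-MS/MS and normalised to the water control. EC50 came from a four-parameter log-logistic fit; Kd = EC50 x depletion factor. Random/reversed control probes are dropped.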

HNRNPUL1 = molecular target: T1, HNRNPUL1 (UniProt Q9BUJ2)
T1 sequence: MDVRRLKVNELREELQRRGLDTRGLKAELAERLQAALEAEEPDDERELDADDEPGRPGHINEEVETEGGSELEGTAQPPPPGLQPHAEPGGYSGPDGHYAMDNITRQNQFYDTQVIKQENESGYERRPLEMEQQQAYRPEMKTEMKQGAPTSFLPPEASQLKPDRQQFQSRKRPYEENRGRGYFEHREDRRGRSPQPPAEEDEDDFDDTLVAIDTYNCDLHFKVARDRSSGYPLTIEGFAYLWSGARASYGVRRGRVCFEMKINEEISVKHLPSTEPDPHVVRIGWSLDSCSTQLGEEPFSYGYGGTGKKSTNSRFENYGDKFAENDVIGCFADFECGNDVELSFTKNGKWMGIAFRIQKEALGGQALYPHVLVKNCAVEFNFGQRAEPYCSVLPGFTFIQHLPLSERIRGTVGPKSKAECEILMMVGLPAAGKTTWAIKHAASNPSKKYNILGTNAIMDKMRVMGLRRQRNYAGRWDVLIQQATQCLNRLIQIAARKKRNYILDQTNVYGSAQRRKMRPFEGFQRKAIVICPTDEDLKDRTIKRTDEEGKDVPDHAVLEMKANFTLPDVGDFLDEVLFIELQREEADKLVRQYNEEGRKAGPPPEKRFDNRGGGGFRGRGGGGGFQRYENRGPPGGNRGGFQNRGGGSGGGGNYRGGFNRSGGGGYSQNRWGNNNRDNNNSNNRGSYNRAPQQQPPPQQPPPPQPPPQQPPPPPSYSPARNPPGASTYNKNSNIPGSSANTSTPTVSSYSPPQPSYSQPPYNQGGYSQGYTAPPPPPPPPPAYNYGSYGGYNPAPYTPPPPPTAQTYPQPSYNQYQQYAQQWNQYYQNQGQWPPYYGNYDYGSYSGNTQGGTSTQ
Experimental: as §1

NKRF = molecular target: T2, NKRF (UniProt O15226)
T2 sequence: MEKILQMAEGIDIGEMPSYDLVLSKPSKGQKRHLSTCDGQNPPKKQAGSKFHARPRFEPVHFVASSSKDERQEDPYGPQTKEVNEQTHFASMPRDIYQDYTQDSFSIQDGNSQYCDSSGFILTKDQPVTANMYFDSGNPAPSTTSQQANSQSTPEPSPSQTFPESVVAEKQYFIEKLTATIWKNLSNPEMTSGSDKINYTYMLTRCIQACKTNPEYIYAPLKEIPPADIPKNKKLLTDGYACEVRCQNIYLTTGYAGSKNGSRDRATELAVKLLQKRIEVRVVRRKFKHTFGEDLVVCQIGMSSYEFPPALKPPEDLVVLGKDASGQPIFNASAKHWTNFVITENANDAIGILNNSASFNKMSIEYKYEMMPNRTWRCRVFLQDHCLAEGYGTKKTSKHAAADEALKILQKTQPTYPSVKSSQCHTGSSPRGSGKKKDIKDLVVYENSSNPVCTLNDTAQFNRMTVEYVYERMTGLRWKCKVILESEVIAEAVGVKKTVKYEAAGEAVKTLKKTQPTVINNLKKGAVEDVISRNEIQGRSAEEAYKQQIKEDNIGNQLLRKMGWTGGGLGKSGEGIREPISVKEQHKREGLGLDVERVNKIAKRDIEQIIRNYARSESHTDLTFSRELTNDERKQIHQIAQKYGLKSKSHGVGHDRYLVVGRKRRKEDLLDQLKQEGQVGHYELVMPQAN
Experimental: as §1

PHAX = PHAX (UniProt Q9H814)
Experimental: as §1

Chain of PHAX (Q9H814 whole entry): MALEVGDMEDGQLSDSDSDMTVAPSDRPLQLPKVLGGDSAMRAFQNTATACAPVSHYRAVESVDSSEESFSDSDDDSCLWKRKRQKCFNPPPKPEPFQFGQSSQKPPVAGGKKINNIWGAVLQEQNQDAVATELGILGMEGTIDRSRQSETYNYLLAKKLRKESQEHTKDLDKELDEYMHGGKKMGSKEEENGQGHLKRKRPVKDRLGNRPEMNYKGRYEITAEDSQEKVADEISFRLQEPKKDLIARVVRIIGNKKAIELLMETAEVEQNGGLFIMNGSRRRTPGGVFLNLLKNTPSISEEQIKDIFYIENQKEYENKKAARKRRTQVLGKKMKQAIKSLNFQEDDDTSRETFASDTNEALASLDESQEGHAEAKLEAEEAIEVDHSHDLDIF
Chain of DHX9 (Q08211 whole entry): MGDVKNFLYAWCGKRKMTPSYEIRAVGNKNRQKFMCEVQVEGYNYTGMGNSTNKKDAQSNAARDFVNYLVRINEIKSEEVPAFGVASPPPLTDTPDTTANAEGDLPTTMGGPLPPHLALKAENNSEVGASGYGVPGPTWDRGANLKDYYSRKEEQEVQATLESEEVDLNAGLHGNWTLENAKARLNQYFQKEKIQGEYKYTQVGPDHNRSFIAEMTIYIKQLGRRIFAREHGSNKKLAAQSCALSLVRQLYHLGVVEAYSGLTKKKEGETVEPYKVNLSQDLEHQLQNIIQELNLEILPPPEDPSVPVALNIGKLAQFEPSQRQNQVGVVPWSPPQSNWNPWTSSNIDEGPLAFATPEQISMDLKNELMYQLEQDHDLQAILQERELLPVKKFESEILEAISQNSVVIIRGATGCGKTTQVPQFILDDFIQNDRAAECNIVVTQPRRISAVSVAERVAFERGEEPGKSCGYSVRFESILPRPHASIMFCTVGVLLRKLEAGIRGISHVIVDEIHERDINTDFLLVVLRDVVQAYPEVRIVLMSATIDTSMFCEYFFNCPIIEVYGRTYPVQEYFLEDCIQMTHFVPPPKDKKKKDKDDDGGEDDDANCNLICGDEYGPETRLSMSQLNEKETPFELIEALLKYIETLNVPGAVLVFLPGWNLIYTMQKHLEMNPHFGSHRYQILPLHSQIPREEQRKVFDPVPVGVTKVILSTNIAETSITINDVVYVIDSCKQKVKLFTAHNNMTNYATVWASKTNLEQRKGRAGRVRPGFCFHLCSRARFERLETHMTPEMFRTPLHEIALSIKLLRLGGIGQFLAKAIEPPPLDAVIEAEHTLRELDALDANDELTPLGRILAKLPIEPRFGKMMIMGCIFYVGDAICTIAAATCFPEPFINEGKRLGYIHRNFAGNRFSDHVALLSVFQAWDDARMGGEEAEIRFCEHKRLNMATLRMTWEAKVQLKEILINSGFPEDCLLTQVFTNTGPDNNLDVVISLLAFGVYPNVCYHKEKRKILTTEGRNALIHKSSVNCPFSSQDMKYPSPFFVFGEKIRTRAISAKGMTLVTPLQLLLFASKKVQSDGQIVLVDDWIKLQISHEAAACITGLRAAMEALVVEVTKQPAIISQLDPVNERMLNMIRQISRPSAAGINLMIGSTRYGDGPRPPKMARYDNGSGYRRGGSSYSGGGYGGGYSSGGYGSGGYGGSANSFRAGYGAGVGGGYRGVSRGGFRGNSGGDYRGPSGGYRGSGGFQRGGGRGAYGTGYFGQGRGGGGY

| Sequence | EC50 (DHX9) | EC50 (HNRNPUL1) | EC50 (NKRF) | EC50 (PHAX) |
| --- | --- | --- | --- | --- |
| AAUAAA | 4050 nM | 1410 nM | 1180 nM | 10700 nM |
| CUGUCCU | 546 nM | 152 nM | 554 nM | 1350 nM |
| UAUUUAU | 1870 nM | 643 nM | 380 nM | 9100 nM |
